Entries after “also recorded” stand apart in the source; their conditions may differ.
Columns and labels:
Assay type in all cases: binding, human
IgE antibodies in serum = test: ELISA of Fmoc-synthesised peptides with patient serum; details: serum of cases having food allergies to chicken egg and soybean in combination
Description: The peptides of the aforementioned SEQ ID NOs were prepared by the Fmoc method and studied for their binding activity against IgE antibodies in serum by ELISA. On the basis of RXRXXKXX (SEQ ID NO: 329), the peptides of chicken egg RGREDKMK and soybean RFREDKEE were prepared, and their binding activity against IgE antibodies were confirmed by ELISA using the serum of cases having food allergies to chicken egg and soybean in combination.

[1] = tested on: IgE antibodies from patients; test: Epitope mapping (2) overlapping (10-amino-acid peptides) and (3) alanine scanning on peptide arrays; details: overlapping peptides with flanking sequence
How it was run: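 Overlapping 10-mer peptides shifted by one residue, and alanine-substituted peptides, spotted on cellulose and probed with patient and non-egg-allergic sera; IgE binding read by anti-human IgE-HRP chemiluminescence. Signal expressed relative to parent sequence and graded in bands from <20% (no binding) to ≥90% (retained binding).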

[2] = tested on: IgE antibody in the serum of an egg allergic patient; test: Immunoblotting of two-dimensional electrophoresis of chicken egg (raw egg) yolk proteins with patient serum; details: for specific reaction/binding of serum IgE with spot in immunoblot: serum of egg-allergic patient 1 (food-dependent exercise-induced anaphylaxis), versus non-egg-allergic serum
Description: Identification of antigens by immunoblotting was carried out by taking all the steps up to the step of “Second-dimensional SDS-PAGE” as described above in Example 1, followed by the steps of “Transfer to membrane”, “Immunoblotting” and “Analysis” as described below.
Transfer to membrane was done using the following transfer system and transfer buffer. • Transfer system: XCell SureLock Mini-Cell and XCell II Blot Module (produced by Life Technologies) • Transfer buffer: NuPAGE Transfer Buffer (X20) (produced by Life Technologies), used in a form diluted 20-fold with milliQ water.
To be specific, proteins in the two-dimensional electrophoresis gels were transferred to a membrane (PVDF membrane) according to the following procedure.
(1) The PVDF membrane was immersed in 100% methanol followed by milliQ water, and then moved into the transfer buffer to hydrophilize the PVDF membrane.
(2) After sponge, filter paper, gels treated by second-dimensional SDS-PAGE, the hydrophilized PVDF membrane, filter paper, and sponge were put in place in this order, the transfer system was energized at a constant voltage of 30 V for one hour.
Immunoblotting of the membrane was carried out using, as a primary antibody, a serum sample from patient (patient 1) with an egg allergy or a serum sample from a non-egg-allergic subject. This egg-allergic patient was a patient diagnosed with food-dependent exercise-induced anaphylaxis (FDEIA) caused by chicken eggs.
Immunoblotting of the membrane was carried out according to the following procedure. • (1) The transferred membrane was shaken in a 5% skim milk/PBST solution (a PBS buffer containing 0.1% Tween 20 nonionic surfactant) at room temperature for one hour. • (2) The membrane was left to stand in a solution of 5% primary antibody serum in 5% skim milk/PBST at room temperature for one hour. • (3) The membrane was washed with a PBST solution (5 min.×3 times). • (4) The membrane was left to stand in a 1:5000 dilution of the secondary antibody, anti-human IgE-HRP (horseradish peroxidase), with a 5% skim milk/PBST solution at room temperature for one hour. • (5) The membrane was washed with a PBST solution (5 min.×3 times). • (6) The membrane was left to stand in Pierce Western Blotting Substrate Plus (produced by Thermo) for 5 minutes. […]
The immunoblots obtained with the serum from the egg-allergic patient were compared with those obtained with the control serum from the non-egg-allergic subject. By immunoblotting of the proteins contained in the raw yolk using the serum from the egg-allergic patient (FIG. 2), three spots were detected, which are different from the spots detected when the serum of the non-egg-allergic subject was used and different from those of the known chicken egg allergen proteins.
Identification of antigens by immunoblotting was carried out using the sera of three other egg-allergic patients (patient 2, patient 3 and patient 4) in the same manner as in Example 2. By immunoblotting of the proteins contained in the raw yolk using the serum from the egg-allergic patients (FIG. 4 for patient 2, FIG. 5 for patient 3, and FIG. 6 for patient 4), spots were detected, which are different from the spots detected when the serum of the non-egg-allergic subject was used and different from those of the known chicken egg allergen proteins. To be specific, spots 4 to 8 for patient 2, spots 9 and 10 for patient 3, and spot 11 for patient 4 were detected.

[3] = serum of egg-allergic patient 3

RGREDKMK was tested. Which “binding activity against IgE antibodies by ELISA” value (IgE antibodies in serum) did it give?
The value was “patient-specific binding activity was able to be confirmed”.

For RFREDKEE, which “binding activity against IgE antibodies by ELISA” value (IgE antibodies in serum) is on record?
Its value is “patient-specific binding activity was able to be confirmed”.

With “SEQ ID NO: 657: sequence comprising a region amino-terminally adjacent to epitope 46 (VPDIMKMSFD; epitope)” as the molecule, how does the “binding to IgE antibodies from patients, sequence comprising a region amino-terminally adjacent to the epitope” value [1] read?
The value was “binding to IgE antibodies from patients”.

B1: vitellogenin-3 (protein)
chain: SIIENLKARCSVSQNMITTFNGVEFNYSMPANCYHILAQDCSPELKFLVMMKRLGESADLTAISVRLASHEVDMYVSNGLIQLKINGVQTPTDVPYTSKSGLLISSEKEGLSLKAPEYGVEKLYYDRRKLEIRVAFWMVGKTCGICGKYDAEKKREYQMPSGYLAKDAVSFAQSWVISEDTCTGACKLQRKFVKIEKPVAFNKKASKCFSIEPVLRCAEGCSATRTVPVSVGFHCVPSDSTLELEEEQVRLDQKSEDLVSRVDAHTACSCAQQLCSA
With B1 as the molecule, how does the “specific reaction/binding of serum IgE with spot in immunoblot” value [2] read?
Its value is “specifically reacted”.

B2: Spot 3: Central sequence of vitellogenin-1, or C-terminal portion (SEQ ID NO: 18) of lipovitellin-1 (protein)
chain: DKPFASGYLKMFGQELLFGRLDKDTLQNVLQVWYGPDEKIPSIRRLISSLQTGIGRQWTKALLLSEIRCIVPTCVGFPMETSFYYSSVTKVAGNVQAQITPSPRSDFRLTELLNSNVRLRSKMSLSMAKHMTFVIGINTNMIQAGLEAHTKVNAHVPVNVVATIQMKEKSIKAEIPPCKEETNLIIVSSKTFAVTRNIEDLAASKMTPVLLPEAVPDIMKMSFDSDSASGETDNIRDRQSVEDVSSGNSFSFGHPSSGKEPFIQSMCSNASTFGVQVCIEKKSVHAAFIRNVPLYNAIGEHALRMSFKPVYSDVPIEKIQVTIQAGDQAPTK
B2 was tested. Which “specific reaction/binding of serum IgE with spot in immunoblot” value [2] did it give?
Its value is “specifically reacted”.

B3: Apolipoprotein B precursor [Spot 9] (protein, listed as Gallus gallus)
chain: MGPVRLLLLLLLLSSGVLTQEGTPENGNPGCSKDAARFKSLRKYVYLYEAETSSGITGTADSRSGSKITCKVELEVPQLCQFILRTMHCSLRETFGVDSERRAMLRKSKNSDDFANAMSKHELRFSTQDGTKVKLYPEKDEPLNVLNLKRGIISALLAPTETEENIKTISMDTVYGKCDSEVEFKSRRGSVAEDISINRNLKACDNFSPIRDYVSPVAIVKGLNIPLSTLLSSTQSCHYSIDAKKKHIRDVVCSEKHLFLPSSYKNQYGMMTEVNQTLKLEDNQRMNNRNPDGDELEEKGLALESTDAK
Which “specific reaction of serum IgE with spot in immunoblot” value (“specific reaction of serum IgE” below) [2, 3] does the source give for B3 here?
The value was “specifically reacted; also recorded: detected”.

B4: Apolipoprotein B precursor [Spot 10] (protein, listed as Gallus gallus)
chain: LDGSTSLTRKRGLKLATALSLNNNKFLGGSHDNSISLTKKNLEASMITNAKINTPVFKMNFSQELSGNTKSKPTISSGLKVTYDFTTPKHGISAKGGVAHKLALETLTSYLSVETSTKGNIDGAIYTGNSFSGALDHEANTYLHANGVRSSLKLEANSKVDGLWNSEMKEILAVEASTSRVYAVWEHNGKNFARYTPLFTTTGSQKCKATFELAPWTVSADLQIQVTQPNSFLDTASVNQVVLMKVSPTDQKVGWKGEGQIQSLSLRHDMQLSNEKSNAKFDISGSLEGYMDFLKRINCAISKKSLWDILKLDVTTVADRKHYLNASASFIYRKSDDGYFFPMPVIR
For B4, which “specific reaction of serum IgE” value [2, 3] is on record?
Its value is “specifically reacted; also recorded: detected”.

B5: Vitellogenin-2 precursor (protein, listed as Gallus gallus)
chain: TPVLAAFLHGISNNKKTGGLQLVVYADTDSVRPRVQVFVTNLTDSSKWKLCADASVRNAHKAVAYVKWGWDCRDYKVSTELVTGRFAGHPAAQVKLEWPKVPSNVRSVVEWFYEFVPGAAFMLGFSERMDKNPSRQARMVVALTSPRTCDVVVKLPDIILYQKAVRLPLSLPVGPRIPASELQPPIWNVFAEAPSAVLENLKARCSVSYNKIKTFNEVKFNYSMPANCYHILVQDCSSELKFLVMMK
Which “specific reaction of serum IgE” value ([2]; serum of egg-allergic patient 4) does the source give for B5 here?
Its value is “specifically reacted; also recorded: detected”.
